Test results: US20150299277A1 (published 2015)
One block for each binder: values may come before it.

What was measured:
[1] = biological target: T1, recombinant human histone H3 (UniProt P68431 2-136); test: SPR; EDTA/EGTA
[2] = biological target: T2, recombinant human histone H4 (UniProt P62805 2-103); test: SPR; EDTA/EGTA
[3] = biological target: T1, recombinant human histone H3; test: SPR; Ca2+
[4] = biological target: T2, recombinant human histone H4; test: SPR; Ca2+
[5] = biological target: recombinant human histone H2B (human); test: SPR; Ca2+

- Kd [1]: 4.77 nM
- Kd [2]: 322 nM
- Kd [3]: 5.64 nM
- Kd [4]: 1.04 nM
B1: Myc- and His-tagged C-terminal domain human PTX3 (animal cell expressed) (other)
chain: CETAILFPMRSKKIFGSVHPVRPMRLESFSACIWVKATDVLNKTILFSYGTKRNPYEIQLYLSYQSIVFVVGGEENKLVAEAMVSLGRWTHLCGTWNSEEGLTSLWVNGELAATTVEMATGHIVPEGGILQIGQEKNGCCVGGGFDETLAFSGRLTGFNIWDSVLSNEEIRETGGAESCHIRGNIVGWGVTEIQPHGGAQYVS

- Kd [5]: 10.9 nM
- Kd [1]: 1.95 nM
- Kd [3]: 0.354 nM
- Kd [4]: 1.21 nM
B2: Escherichia coli-expressed N-terminal domain human PTX3 wherein the 47th, 49th, 103rd cysteine residues were replaced with serine residue (other)
chain: ENLYFQGENSDDYDLMYVNLDNEIDNGLHPTEDPTPSDSGQEHSEWDKLFIMLENSQMRERMLLQATDDVLRGELQRLREELGRLAESLARPSAPGAPAEARLTSALDELLQATRDAGRRLARMEGAEAQRPEEAGRALAAVLEELRQTRADLHAVQGWAARSWLPAG
